± gives the uncertainty stated by the source.
Test: amyloid nucleation score (Sup35N fusion, yeast selection) (log enrichment); library NNK2; higher = more nucleation; inactive = no reads after selection
In short: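 Using DiMSum, nucleation scores were taken as the log enrichment of output over input reads, centred on the mode score of non-aggregating sequences. The input and output reads came from Illumina sequencing of plasmid inserts, with sequences under 100 input reads excluded. The yeast were psi-negative, expressed Sup35N fused to peptides of 20 random codons, were induced with 100 μM copper sulfate for 24 hours, and were grown 7 days at 30°C on medium lacking adenine and uracil.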

Substance	amyloid nucleation score
MFGHHKS	-0.5 ± 0.63
MFLSNDIAFVKNVLNRIRYL	-0.642 ± 0.78
MFLYTVTNARFYEWW	0.102 ± 0.61
MFNFWWSFYALFKLSWRPGF	-0.996 ± 0.49
MFNLSLNEFKPGLNRDCVQ	-0.258 ± 0.56
MFSPQLSALMILVSYMHDGW	2.04 ± 0.087
MFYASFGVKL	0.655 ± 0.65
MGCICWVDCKPYDFGMTVVM	-0.726 ± 0.49
MGFQVYLGRGLNDFKAE	2.66 ± 0.11
MGLMNCSYSVKKQAAVIRTD	0.06 ± 0.17
MGLRCWKIIMWNYSRKLHQC	0.031 ± 0.45
MGLSWLSLLLKCRCQWACKL	0.306 ± 0.65
MGLYLWGFRTTSICGVLMDY	-1.66 ± 0.76
MGNSYIEVRSLYR	-0.578 ± 0.64
MGSGSIFT	0.287 ± 0.45
MGVKPTPCRVRPPRRPGASA	1.68 ± 0.27
MGVRY	1.42 ± 0.38
MHDYFLVQ	-0.487 ± 0.42
MHGFNDAYFLCDVSAQGLV	-0.128 ± 0.28
MIDRE	0.83 ± 0.2
MIGSGVW	-1.07 ± 0.78
MIIVTAY	-0.073 ± 0.49
MINFDYYRYHCWCSNQHYTR	1.19 ± 0.47
MISYYLMSIYS	4.58 ± 0.065
MIYERASSVRISFGMLRFRS	-1.48 ± 1.1

Substance	amyloid nucleation score
MKFVNINGAICSVRHPSVRT	0.089 ± 0.79
MKGALWYSDKAT	0.102 ± 1.1
MKSNSLSGRCSQFHLES	-0.184 ± 1.1
MKVGLLD	-0.49 ± 0.76
MLHSRLAREMHTLVILFFNK	0.05 ± 0.49
MLIPRVFISHVDICGYISCS	4.626 ± 0.036
MLNLVATVLWDWSVDCSWQV	1.5 ± 0.11
MLRCQFTSTGFGNRLATFSD	3.02 ± 0.15
MLSQASKT	-0.84 ± 1.1
MLVLFADRRSMRDLDNTGFV	0.029 ± 0.79
MMAIFWGFSVQRRRGSGIDL	2.74 ± 0.18
MMGVCF	-0.916 ± 1.1
MMIAWFSRMCFF	2.92 ± 0.1
MMLNSINLKYLIWLCN	2.73 ± 0.06
MMLRLSCSSPQSLVRSSS	-0.181 ± 0.63
MNELVIIGILMCCTDF	8.484 ± 0.027
MNQTCIRVDRLELYRYM	inactive
MNRYSKIVSQFVLAVDSTYF	0.433 ± 0.74
MNVMNQSSFHMV	-0.108 ± 1.1
MPLLRVVMTLRHKSLFKAEM	-0.272 ± 0.44
MPPRGKSWSVRTSLWKQIFM	3.24 ± 0.11
MRAYFYNKRVISYSLISFPV	-1.45 ± 0.78
MRCWFTFVWCVIYY	inactive
MRGVTLYDYFDGIRIWRPLR	3.76 ± 0.12
MRLFFLVLICAYVVESGFQC	0.72 ± 0.25

Substance	amyloid nucleation score
MRSFCFSVQNIQVTYHVGLA	3.94 ± 0.1
MRSSFGK	-0.086 ± 0.5
MRTNRLKSVV	0.275 ± 0.33
MRVRLGSATR	0.47 ± 0.34
MSARECWTIRFPYRVIVWEV	0.214 ± 0.74
MSGAFVYAWCLRTGKCTQAG	-0.082 ± 0.27
MSGEDSGCLWDCNVYSRLDV	-0.486 ± 0.74
MSISSALNKSSHTNSSMWNK	-0.277 ± 0.31
MSIWCNSIDRTFIDNLRPVF	-1.43 ± 0.62
MSKYFWVSRGSSIITTW	-0.539 ± 0.37
MSLHPMRLHQWRPESIVLTE	0.365 ± 0.66
MSMFVGTYNSFFRQSLFSAF	-1.7 ± 0.78
MSNMVSSMGSRMFLIICVVS	0.68 ± 0.4
MTFDNDVCVSI	inactive
MTGNIEIIRMCRCTTYGMTY	1.09 ± 0.37
MTKRG	0.187 ± 0.41
MTMMVGRIISTNRVYS	1.29 ± 0.53
MTNSLCSTCIMFYSMCMNST	7.79 ± 0.08
MTSYAWMNTSSM	inactive
MTTFDIRIMA	0.195 ± 0.24
MVEHLCNNHSRFLYSAWGIE	-0.641 ± 0.56
MVFVFKDSLIFSRSLYIMEC	-1.34 ± 0.41
MVGCFWVMFVGREIYSRVRS	-0.915 ± 0.26
MVILVLFASTVLQYTVPFWV	0.247 ± 0.5
MVIWFPLEIMIRIRSPL	-0.766 ± 0.48

Substance	amyloid nucleation score
MVLVS	0.548 ± 0.34
MVRIGELSPRCNSFV	0.075 ± 0.53
MVSCRN	0.237 ± 1
MVSMFNGYAVLHCPLCIITR	7.11 ± 0.047
MVTTSSVSNADLNVDMWLEP	1.01 ± 0.2
MVTYVMLSIPGFSSKYFFEG	-1.42 ± 1.1
MWDNFPCAVVLFKLC	0.696 ± 0.23
MWKQWSSRTPRSVVYRGLMV	0.755 ± 0.21
MWRGQCV	1.06 ± 0.24
MWRTLGYHTNMVSA	inactive
MWTLLVKSTKGAHGQYSVMH	0.397 ± 0.22
MWWFYGSILHRGDRT	1.58 ± 0.23
MYCLFFFMWGCYYYTIFRSV	inactive
MYCLVYHQIYSDSHA	3.91 ± 0.05
MYLLFGSLTVYRIHYSVSNT	-1.14 ± 1.1
MYLRYSFLIISCELGDLNSL	inactive
MYPIWNQCSSWNEVVLNGCR	0.159 ± 0.4
MYPRPVYNIKLFLKEVWGQY	6.933 ± 0.046
MYREGSTVGLYMFPYCKDQS	0.237 ± 0.4
MYSLSAAFT	inactive
MYTSLLVYML	3.78 ± 0.048
MYYASIIEKYLYRNDLVGVG	0.269 ± 0.33
NADKVQGMRMNRDWYSWCCL	5.323 ± 0.038
NADPNCLSK	0.508 ± 0.57
NAEFIPGYMISVWTSIATIT	0.359 ± 0.42

Substance	amyloid nucleation score
NAFLPG	4.52 ± 0.12
NAFSKSIFKNMTQQKDQLSE	inactive
NAGVYLFYMCICYVKYFFYM	-0.87 ± 0.78
NAICPIKVSGFGCLSKR	0.092 ± 1.1
NAYLFMFFRRGLWFSVLPFV	-1.09 ± 1.1
NAYLVSRVIKLIVLSKWYRY	0.689 ± 0.57
NCFKECVVPHR	-0.043 ± 0.37
NCFVLVRALTYCLGNSR	5.18 ± 0.1
NCHMR	-0.19 ± 0.34
NCPSTDFPELMSMQSYCLLC	-1.71 ± 1.1
NCSYNMNKRASSMFHSGCVV	2.81 ± 0.14
NCTRSSVWNNVVCLESHPSY	-0.035 ± 0.76
NCWRNGCVQLFRWY	5.15 ± 0.092
NDDKRSRLMRWETSKIRSSV	3.89 ± 0.052
NDFTFLMFDM	1.25 ± 0.44
NDGCIGVFFDRMVPDWVTTL	-0.477 ± 0.48
NDGMSSIRWGMTPHYVSSGD	0.698 ± 0.14
NDHLGVS	3.69 ± 0.059
NDKVFYGRFSFHHVGHWCRV	-0.506 ± 0.41
NDRHLRWPFCPCYQVRLCIT	inactive
NDSRHTVIGYVMFKVYMYLK	inactive
NDTCIRLWRWLRAQDSWLGN	0.668 ± 0.37
NDYLFIFHLFCLVSCLMNKW	-0.228 ± 1.1
NELCRKPLNLGCISSYVFIE	-0.584 ± 0.3
NELVSLQVIWIF	-0.098 ± 0.79

Substance	amyloid nucleation score
NERFFKILCWLFRRNSFTIE	-2.24 ± 1
NEVDG	2.28 ± 0.1
NEVVFRVYK	3.22 ± 0.068
NEWAN	-1.31 ± 0.62
NFAVLYYIFVHIWLQCSNSE	-0.969 ± 0.41
NFFPCACNNGAPIKEDFTCR	2.84 ± 0.17
NFIFDFVV	-0.03 ± 0.21
NFLADCLDGSANAIWVHVAS	0.57 ± 0.23
NFMCVSYQAAANSILRVPQS	1.28 ± 0.11
NFMSYIDKRWYQWLVSDRIS	5.413 ± 0.047
NFNCYFS	4.888 ± 0.037
NFNMYGVFCVY	inactive
NFPRRSRVLKYCITLSSNHS	-0.158 ± 0.5
NFSFRLYLLLETSIMYIGKT	-1.3 ± 0.38
NFSVNCLYNWARYACFLKGM	1.77 ± 0.12
NFVILLCKQN	5.2 ± 0.053
NFYFLIRLKAFSCLRIENWF	2.28 ± 0.061
NGARKCFIDAHWESAVANPE	3.2 ± 0.099
NGFMDYQLPLAARVKSSWHL	2.97 ± 0.076
NGLSRLEVTNH	0.052 ± 0.49
NGNRSHLELRCGWMSWCDRA	-0.318 ± 0.55
NGNVVADWI	0.809 ± 0.27
NGSESAYGNSLWLCLLEAAI	inactive
NGVGLSVTGKCCKERSIFPP	-0.406 ± 0.5
NHMGIVRVVLMFGSYITLI	-0.174 ± 0.45

Substance	amyloid nucleation score
NHSMRPNRTVSGMLTSIYYR	-0.533 ± 0.55
NHSTVYLLMEISTGLVISGN	1.99 ± 0.16
NICSTGPLFWNFLFVV	1.83 ± 0.15
NIIFLGVGSVFKNWRTTILS	4.02 ± 0.049
NILMY	-0.46 ± 1
NIQWLLQVDEDFKF	1.58 ± 0.16
NISFADSCMNFIRYY	2.4 ± 0.12
NISFGSYILLRFLMRVE	0.58 ± 0.6
NITDDRMSSWIRFVILVSTV	-0.074 ± 0.56
NITLRSQGIVRGQTFICLFW	-0.354 ± 0.56
NKLPDSFRSALSFY	inactive
NKTTFSICDAYDGYREWTDN	-1.17 ± 0.45
NLALFCLVLMMEHQRFPCKA	4.49 ± 0.072
NLCGCAMVCWVPF	-0.217 ± 0.54
NLGNDGHSELRHYSNL	inactive
NLGRAQTSQ	0.192 ± 0.65
NLGSHTVEFSVMS	0.152 ± 0.77
NLIESWTVYCIGLGG	inactive
NLKKAQFRGMYVAYP	1.55 ± 0.47
NLLLFWSSHLSNECGSNSLG	4.66 ± 0.1
NLLLFYPAISVSCVNYTMRV	7.127 ± 0.052
NLLNKTWFVSILIKHTCMYS	0.659 ± 0.56
NLMCTACILDQWRHCKLVWN	4.15 ± 0.091

Reference: the supplement of paper PMC12042874
